Assay results taken from patent US20220017591A1 (AstraZeneca / MedImmune, published 2022).
Changes are numbered by the printed parent chain. Read-outs that look alike come from different tables or passages of the source. Blank lines part the entries; values can stand above or below the binder they belong to.

Assays:
Assay in all cases: cell-based or functional assay
human RXFP2 [1] = molecular target: T1, human RXFP2 (human, UniProt Q8WXD0 1-754)
human RXFP1 [2] = molecular target: T2, human RXFP1 (human, UniProt Q9HBX9 1-757)
T2 sequence (looked up): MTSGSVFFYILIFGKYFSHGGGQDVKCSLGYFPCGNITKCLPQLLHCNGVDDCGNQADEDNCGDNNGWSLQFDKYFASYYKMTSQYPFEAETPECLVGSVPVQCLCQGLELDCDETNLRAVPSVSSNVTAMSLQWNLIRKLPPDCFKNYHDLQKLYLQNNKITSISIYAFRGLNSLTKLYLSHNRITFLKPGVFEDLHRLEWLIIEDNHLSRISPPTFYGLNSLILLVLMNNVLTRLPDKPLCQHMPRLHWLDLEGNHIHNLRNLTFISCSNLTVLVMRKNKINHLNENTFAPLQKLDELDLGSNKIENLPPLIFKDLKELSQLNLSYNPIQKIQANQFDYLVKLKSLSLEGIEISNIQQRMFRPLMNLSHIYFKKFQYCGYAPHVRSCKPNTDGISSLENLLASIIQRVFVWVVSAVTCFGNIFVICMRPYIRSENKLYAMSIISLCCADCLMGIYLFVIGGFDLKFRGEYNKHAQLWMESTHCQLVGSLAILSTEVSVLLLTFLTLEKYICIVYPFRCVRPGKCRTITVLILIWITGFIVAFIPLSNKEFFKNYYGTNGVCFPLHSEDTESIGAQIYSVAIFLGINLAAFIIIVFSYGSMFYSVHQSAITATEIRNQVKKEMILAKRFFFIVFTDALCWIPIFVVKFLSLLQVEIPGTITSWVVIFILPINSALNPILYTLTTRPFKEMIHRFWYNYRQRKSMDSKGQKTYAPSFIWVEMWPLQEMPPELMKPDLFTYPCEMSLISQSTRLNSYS

mouse RXFP1 [3] = molecular target: T3, mouse RXFP1 (mouse, UniProt Q6R6I7 1-758)
T3 sequence (looked up): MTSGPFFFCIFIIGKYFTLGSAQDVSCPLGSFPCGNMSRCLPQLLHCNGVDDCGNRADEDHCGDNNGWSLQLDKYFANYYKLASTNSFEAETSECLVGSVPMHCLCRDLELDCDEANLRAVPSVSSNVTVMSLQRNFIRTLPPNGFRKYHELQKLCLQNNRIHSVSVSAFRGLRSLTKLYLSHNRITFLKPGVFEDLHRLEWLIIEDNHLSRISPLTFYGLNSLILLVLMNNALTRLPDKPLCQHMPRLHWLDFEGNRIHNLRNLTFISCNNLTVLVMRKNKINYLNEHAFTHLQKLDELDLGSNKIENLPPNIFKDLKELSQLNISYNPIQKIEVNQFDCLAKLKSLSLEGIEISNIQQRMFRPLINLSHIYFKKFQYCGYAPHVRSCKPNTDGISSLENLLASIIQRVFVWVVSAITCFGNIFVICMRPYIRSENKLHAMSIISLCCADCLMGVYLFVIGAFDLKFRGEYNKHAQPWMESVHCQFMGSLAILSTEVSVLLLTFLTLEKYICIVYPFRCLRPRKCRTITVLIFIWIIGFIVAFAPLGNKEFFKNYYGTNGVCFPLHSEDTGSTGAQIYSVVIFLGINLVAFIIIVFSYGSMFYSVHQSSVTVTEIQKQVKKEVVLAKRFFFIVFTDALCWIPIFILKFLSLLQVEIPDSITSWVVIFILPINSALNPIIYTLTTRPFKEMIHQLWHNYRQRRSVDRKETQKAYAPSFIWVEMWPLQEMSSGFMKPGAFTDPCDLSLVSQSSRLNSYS

human RXFP2 [4] = molecular target: T1, human RXFP2; remark: listed apart in the source
human RXFP1 [5] = molecular target: T2, human RXFP1; remark: listed apart in the source
mouse RXFP1 [6] = molecular target: T3, mouse RXFP1; remark: listed apart in the source

T1 sequence (Q8WXD0 whole entry): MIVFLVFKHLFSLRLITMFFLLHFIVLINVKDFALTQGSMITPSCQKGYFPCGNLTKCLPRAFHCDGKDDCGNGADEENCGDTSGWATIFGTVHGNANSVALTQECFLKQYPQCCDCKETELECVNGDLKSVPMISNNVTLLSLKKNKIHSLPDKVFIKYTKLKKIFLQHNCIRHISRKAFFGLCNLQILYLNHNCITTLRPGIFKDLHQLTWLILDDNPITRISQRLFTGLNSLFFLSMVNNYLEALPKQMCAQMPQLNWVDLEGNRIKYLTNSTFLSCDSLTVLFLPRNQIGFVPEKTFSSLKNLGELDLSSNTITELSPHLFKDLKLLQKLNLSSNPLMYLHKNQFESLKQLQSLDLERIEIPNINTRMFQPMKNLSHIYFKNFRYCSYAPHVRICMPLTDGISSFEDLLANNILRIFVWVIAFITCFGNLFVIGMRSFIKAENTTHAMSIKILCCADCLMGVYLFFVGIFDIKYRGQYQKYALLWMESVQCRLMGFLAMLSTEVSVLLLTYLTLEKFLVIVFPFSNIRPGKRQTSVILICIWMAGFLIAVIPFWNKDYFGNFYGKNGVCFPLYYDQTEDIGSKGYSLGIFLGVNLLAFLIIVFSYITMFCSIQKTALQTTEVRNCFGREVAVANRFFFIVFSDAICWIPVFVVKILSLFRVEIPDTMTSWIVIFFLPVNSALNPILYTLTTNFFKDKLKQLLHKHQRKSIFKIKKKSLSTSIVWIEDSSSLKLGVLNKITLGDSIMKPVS

EC50 hRXFP2 (M), cAMP assay (human RXFP2 [1]): 1.08e-07 M | EC50 hRXFP1 (M), cAMP assay (human RXFP1 [2]): 6.54e-11 M | EC50 mRXFP1 (M), cAMP assay (mouse RXFP1 [3]): 4.25e-11 M
B1: RELAX0039 (Fc fusion)
chain 1: DKTHTACPPCPAPEFEGGPSVFLFPPKPKDTLMISRTPEVTCVVVDVSHEDPEVKFNWYVDGVEVHNAKTKPREEQYNSTYRVVSVLTVLHQDWLNGKEYKCKVSNKALPASIEKTISKAKGQPREPQVYTLPPCREEMTKNQVSLWCLVKGFYPSDIAVEWESNGQPENNYKTTPPVLDSDGSFFLYSKLTVDKSRWQQGNVFSCSVMHEALHNHYTQKSLSLSPGGGGGSGGGGSGGGGSGGGGGSQLYSALANMCCHVGCTKRSLARFC
chain 2: DKTHTCPPCPAPEFEGGPSVFLFPPKPKDTLMISRTPEVTCVVVDVSHEDPEVKFNWYVDGVEVHNAKTKPREEQYNSTYRVVSVLTVLHQDWLNGKEYKCKVSNKALPASIEKTISKAKGQPREPQVCTLPPSREEMTKNQVSLSCAVKGFYPSDIAVEWESNGQPENNYKTTPPVLDSDGSFFLVSKLTVDKSRWQQGNVFSCSVMHEALHNHYTQKSLSLSPGGGGGSGGGGSGGGGSGGGGGSSWMEEVIKLCGRELVRAQIAICGMSTWS

EC50 hRXFP2 (M), cAMP assay (human RXFP2 [1]): 1.05e-07 M | EC50 hRXFP1 (M), cAMP assay (human RXFP1 [2]): 9.67e-11 M | EC50 mRXFP1 (M), cAMP assay (mouse RXFP1 [3]): 5.69e-11 M
B2: RELAX0052 (Fc fusion)
chain 1: B1 chain 1 with M257K, R266E
chain 2: B1 chain 2

EC50 hRXFP2 (M), cAMP assay (human RXFP2 [1]): 1.18e-07 M | EC50 hRXFP1 (M), cAMP assay (human RXFP1 [2]): 6.22e-11 M | EC50 mRXFP1 (M), cAMP assay (mouse RXFP1 [3]): 3.17e-11 M
B3: RELAX0041 (Fc fusion)
chain 1: B1 chain 1 with M257H
chain 2: B1 chain 2

EC50 hRXFP2 (M), cAMP assay (human RXFP2 [4]): 4.26e-08 M | EC50 hRXFP1 (M), cAMP assay (human RXFP1 [5]): 4.6e-11 M | EC50 mRXFP1 (M), cAMP assay (mouse RXFP1 [6]): 1.56e-11 M
B4: RELAX0024 (Fc fusion)
chain 1: DKTHTCPPCPAPEFEGGPSVFLFPPKPKDTLMISRTPEVTCVVVDVSHEDPEVKFNWYVDGVEVHNAKTKPREEQYNSTYRVVSVLTVLHQDWLNGKEYKCKVSNKALPASIEKTISKAKGQPREPQVCTLPPSREEMTKNQVSLSCAVKGFYPSDIAVEWESNGQPENNYKTTPPVLDSDGSFFLVSKLTVDKSRWQQGNVFSCSVMHEALHNHYTQKSLSLSPGGGGGSGGGGSGGGGSGGGGGSQLYSALANKCCHVGCTKRSLARFC
chain 2: B1 chain 2 with C129Y, S134C, S146W, A148L, V187Y

EC50 hRXFP2 (M), cAMP assay (human RXFP2 [1]): > 1.38e-07 M | EC50 hRXFP1 (M), cAMP assay (human RXFP1 [2]): 1.96e-10 M | EC50 mRXFP1 (M), cAMP assay (mouse RXFP1 [3]): 4.46e-11 M
B5: RELAX0063 (Fc fusion)
chain 1: B4 chain 1 with C129Y, S134C, S146W, A148L, V187Y, F270A
chain 2: B1 chain 2

EC50 hRXFP2 (M), cAMP assay (human RXFP2 [1]): > 1.43e-07 M | EC50 hRXFP1 (M), cAMP assay (human RXFP1 [2]): 9.47e-11 M | EC50 mRXFP1 (M), cAMP assay (mouse RXFP1 [3]): 6.14e-11 M
B6: RELAX0075 (Fc fusion)
chain 1: B4 chain 1 with C129Y, S134C, S146W, A148L, V187Y, F270I
chain 2: B1 chain 2

EC50 hRXFP2 (M), cAMP assay (human RXFP2 [1]): 1.15e-07 M | EC50 hRXFP1 (M), cAMP assay (human RXFP1 [2]): 6.87e-11 M | EC50 mRXFP1 (M), cAMP assay (mouse RXFP1 [3]): 3.93e-11 M
B7: RELAX0071 (Fc fusion)
chain 1: B4 chain 1 with C129Y, S134C, S146W, A148L, V187Y, R269Q
chain 2: B1 chain 2

EC50 hRXFP2 (M), cAMP assay (human RXFP2 [1]): > 1.79e-07 M | EC50 hRXFP1 (M), cAMP assay (human RXFP1 [2]): 7.15e-11 M | EC50 mRXFP1 (M), cAMP assay (mouse RXFP1 [3]): 4.36e-11 M
B8: RELAX0053 (Fc fusion)
chain 1: B1 chain 1 with M257K, R266H
chain 2: B1 chain 2

EC50 hRXFP2 (M), cAMP assay (human RXFP2 [1]): 8.63e-08 M | EC50 hRXFP1 (M), cAMP assay (human RXFP1 [2]): 5.7e-11 M | EC50 mRXFP1 (M), cAMP assay (mouse RXFP1 [3]): 4.15e-11 M
B9: RELAX0073 (Fc fusion)
chain 1: B4 chain 1 with C129Y, S134C, S146W, A148L, V187Y, R269Y
chain 2: B1 chain 2

EC50 hRXFP2 (M), cAMP assay (human RXFP2 [1]): > 2.3e-07 M | EC50 hRXFP1 (M), cAMP assay (human RXFP1 [2]): 8.53e-11 M | EC50 mRXFP1 (M), cAMP assay (mouse RXFP1 [3]): 4.03e-11 M
B10: RELAX0072 (Fc fusion)
chain 1: B4 chain 1 with C129Y, S134C, S146W, A148L, V187Y, R269A
chain 2: B1 chain 2

EC50 hRXFP2 (M), cAMP assay (human RXFP2 [1]): 9.21e-08 M | EC50 hRXFP1 (M), cAMP assay (human RXFP1 [2]): 5.45e-11 M | EC50 mRXFP1 (M), cAMP assay (mouse RXFP1 [3]): 4.53e-11 M
B11: RELAX0074 (Fc fusion)
chain 1: B4 chain 1 with C129Y, S134C, S146W, A148L, V187Y, R269S
chain 2: B1 chain 2

EC50 hRXFP1 (M), cAMP assay (human RXFP1 [5]): 4.74e-11 M | EC50 mRXFP1 (M), cAMP assay (mouse RXFP1 [6]): 3.28e-11 M
B12: RELAX0022 (Fc fusion)
chain 1: B1 chain 1 with D1G, K2G, T3A, H4G, T5G, C135S, W147S, L149A, Y188V, M257K
chain 2: GGAGGACPPCPAPEFEGGPSVFLFPPKPKDTLMISRTPEVTCVVVDVSHEDPEVKFNWYVDGVEVHNAKTKPREEQYNSTYRVVSVLTVLHQDWLNGKEYKCKVSNKALPASIEKTISKAKGQPREPQVYTLPPSREEMTKNQVSLWCLVKGFYPSDIAVEWESNGQPENNYKTTPPVLDSDGSFFLYSKLTVDKSRWQQGNVFSCSVMHEALHNHYTQKSLSLSPGGGGGSGGGGSGGGGSGGGGGSSWMEEVIKLCGRELVRAQIAICGMSTWS

EC50 hRXFP2 (M), cAMP assay (human RXFP2 [1]): > 1.62e-07 M | EC50 hRXFP1 (M), cAMP assay (human RXFP1 [2]): 5.76e-11 M | EC50 mRXFP1 (M), cAMP assay (mouse RXFP1 [3]): 3.69e-11 M
B13: RELAX0069 (Fc fusion)
chain 1: B4 chain 1 with C129Y, S134C, S146W, A148L, V187Y, R269M
chain 2: B1 chain 2

EC50 hRXFP2 (M), cAMP assay (human RXFP2 [1]): > 1.27e-07 M | EC50 hRXFP1 (M), cAMP assay (human RXFP1 [2]): 5.92e-11 M | EC50 mRXFP1 (M), cAMP assay (mouse RXFP1 [3]): 2.92e-11 M
B14: RELAX0040 (Fc fusion)
chain 1: B1 chain 1 with M257L
chain 2: B1 chain 2

EC50 hRXFP2 (M), cAMP assay (human RXFP2 [1]): > 1.58e-07 M | EC50 hRXFP1 (M), cAMP assay (human RXFP1 [2]): 7.98e-11 M | EC50 mRXFP1 (M), cAMP assay (mouse RXFP1 [3]): 5.58e-11 M
B15: RELAX0043 (Fc fusion)
chain 1: B1 chain 1 with M257E
chain 2: B1 chain 2

EC50 hRXFP2 (M), cAMP assay (human RXFP2 [1]): 1.07e-07 M | EC50 hRXFP1 (M), cAMP assay (human RXFP1 [2]): 6.67e-11 M | EC50 mRXFP1 (M), cAMP assay (mouse RXFP1 [3]): 5.02e-11 M
B16: RELAX0070 (Fc fusion)
chain 1: B4 chain 1 with C129Y, S134C, S146W, A148L, V187Y, R269I
chain 2: B1 chain 2

EC50 hRXFP2 (M), cAMP assay (human RXFP2 [4]): 3.54e-08 M | EC50 hRXFP1 (M), cAMP assay (human RXFP1 [5]): 4.41e-11 M | EC50 mRXFP1 (M), cAMP assay (mouse RXFP1 [6]): 2.79e-11 M
B17: RELAX0020 (Fc fusion)
chain 1: B12 chain 2 with S135C
chain 2: GGAGGACPPCPAPEFEGGPSVFLFPPKPKDTLMISRTPEVTCVVVDVSHEDPEVKFNWYVDGVEVHNAKTKPREEQYNSTYRVVSVLTVLHQDWLNGKEYKCKVSNKALPASIEKTISKAKGQPREPQVCTLPPSREEMTKNQVSLSCAVKGFYPSDIAVEWESNGQPENNYKTTPPVLDSDGSFFLVSKLTVDKSRWQQGNVFSCSVMHEALHNHYTQKSLSLSPGGGGGSGGGGSGGGGSGGGGGSQLYSALANKCCHVGCTKRSLARFC
